From the nanobody polyreactivity screen of Harvey et al. (2022) come the findings set out here.

The nature of this data set: yeast display, Sf9 membrane polyspecificity reagent, FACS + sequencing; frameworks hold sequencing errors. A digest of the protocol: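 Galactose-induced (36–48 hours) yeast carrying a synthetic nanobody display library were exposed to 10% biotinylated, detergent-solubilized Sf9 membrane reagent at 4 °C for 1 hour. FACS followed streptavidin microbead enrichment, using low and high (top ~1%) gates for expression (anti-HA) and reagent binding (streptavidin). Colony PCR, MiSeq 2 × 250 sequencing and CDR-length filtering followed. Labels for polyreactivity reflect the gate of origin.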
Regarding “QVQLVESGGGLVQAGGSLRLSCAASGSTFTSNAMGWYREAPGKEREFVAAISVGGGITYYADSVKGRFTISRDNAKNTVSLQMNSLKPEDTAVYYCAADGEYPHSEDFEYWGQGTQVNVSS”, the “polyreactivity (PSR sort gate)” value was “low polyreactivity”.

Take “QVQLVESGGGLVQAGGSLRLSCADSGITFWKYAMGWYRQAPGKERELVAAISGRGGSTYYADSVKGRFTISRDNAKNTVYLQMNSLKPEDTAVYYCAKYPGISGYNYWGQGTQVTVSS”: the “polyreactivity (PSR sort gate)” value was “high polyreactivity”.

Regarding “QVQLVESGGGLVQAGGSLRLSCAASGSILYPYAMGWYRQAPGKERELVAAISSDGSTYYADSVKGRFTISRDNAKNTVYLQMNSLKPEDTAVYYCNADIGPRYDYWGQGTQVTVSS”, the “polyreactivity (PSR sort gate)” value is “high polyreactivity”. To “QVQLVESGGGLVQAGGSLRLSCAASGRTIASYAMGWYRQAPGKERELVAAITSGGSTYYADSVKGRFTISRDNAKNTVYLQMNSLKPEDTAVYYCARIHAIWRGYDYWGQGTQVTVSS” belongs “low polyreactivity”; to “QDQLVESGGGLVEAGGSLRLSCAASGRTFWLNAMGWYRQAPGKERELVATISSSSGSTTYADSVKGRFTSSRDNAKNTVYIQMNSLKPEDTAVYYCNVDDPFYSGVVEFDYWGQGTQVTVSS”, “low polyreactivity”. To “QVQLVESGGGLVQAGGSLRLSCAASGYTFRIYAMGWYRLAPGKERELVAGISSRGTSTYYADSVKGRFTISRDNAKNTVYLQMNSLKPEDTAVYYCAAGRYGRLYGYWGQGTQVTVSS” belongs “high polyreactivity”.

For “QVQRVESGGGLVQAGGSLRLSCAHSGRTFPRYVMGRYRQAPAKERELVAAITSSGGSTYYADSVKGRFTISRDNAKNTVYLQMNSLKPEDTAVYYCAAYARPYSGPYAYRLDYWGQGTQVTVSS”, the “polyreactivity (PSR sort gate)” value is recorded as “high polyreactivity”.

For “QVQLVESGGGLVQAGGSLRLICAASGLTFWVYTMGWYRQAPGKERELVARITSRGASTYYADSVKGRFTISRDNAKNTVYLQMNSLKPEDTAVYYCATDRYRIYPDYDYWGQGTQVTVSS”, the “polyreactivity (PSR sort gate)” value is given as “high polyreactivity”. Consider “QVQLVESGGGIVQAGGSLRLSCAASGSIFGINAMGWNRQAPGKERELVAAITSRGGRTYYADSVKGRFTISRDNAKNTVYLQMNSLKPEDTAVYYCAAATPYLIRYYYWGQGTQVTVSS”, for which the “polyreactivity (PSR sort gate)” value is listed as “high polyreactivity”. “QVQLVESGGGLVQAGGSLRLSCAASGRIFKYYAMGWYRQAPGKERELVARISRSSGNTYYADSVKGRFTISRDNAKNTVYLQMNSLKPEDTAVYYCATVPHYNGFNYWGQGTQVTVSS”: the “polyreactivity (PSR sort gate)” value is on record as “high polyreactivity”. In the case of “QVQLVESGGGLVQAGGSLRLSCAASGSTFNYYAMGWYRPAPGKERELVAAICSRSSRTFYADSVKGRFSISRDNEKNTVYLQMNSLKPEDTAVYYCAVKKRAPDGDYWGQGSQVTVSS”, the “polyreactivity (PSR sort gate)” value is “high polyreactivity”.

Regarding “QVQLVESGGGLVQAGGSLRFSCAASGSTFTAYVMGWYRQAPGKERELVAAISRSGGRTYYADSVKGRFTISRDNAKKTVYLQMNSLKPEDTAVYYCAARSGPLAYDYWGQGTQVTVSS”, the “polyreactivity (PSR sort gate)” value is listed as “high polyreactivity”.

As to “QVQLVESGGGLVQAGGSLRLSCAASGFIYHGYTMGWYSQAPGKERDLVAAITTSGTSTYYADSVKGRFTISRDNAKNTVYLQMNSLKPEDTAVYYCYDYVPGGYSRPYYYRFDHWGQGTQVTVSS”, the “polyreactivity (PSR sort gate)” value was “high polyreactivity”. Turning to “QVQLVESGGGLVQAGGSLRLSCAASGRIFQYYAMGWYRQAPGKERELVATITSTGSTYYADSVKGRFTISRDNAKNTVYLQMNSLKPEDTAVYYCNADPWGIYETFGDHDYWGQGTQVTVSS”, the “polyreactivity (PSR sort gate)” value is on record as “low polyreactivity”. On to “QVQLVESGGGLVQAGGSLRLSCAASGLIFVGYAMGWYRQAPGKERELVAAITSGGSTKYADSVKGRFTISRDNAKNTVYLQMNSLKAEDTAVYYCAASGWRNWWSARNYYWGQGTQVTVSS”, for which the “polyreactivity (PSR sort gate)” value was “low polyreactivity”.

“QVQLVESGGGLVQAGGSLRLSCDASGSIFYNNAMGWYRQAPGKERELVATIRRSGGSTYYADSVKGRFTISRDNAKNTVYLQMNSLKPEDTAVYYCAADYTPDLLSKVDYWGQGTQVTVSS”: the “polyreactivity (PSR sort gate)” value was “low polyreactivity”. Take “QVQLVESGGGLVQAGGSLRLSCAASGFTFKYNVMGWYRQAPGKERELVAAISKRGGNTYYADSVKGRFTISRDNAKNTVYLQMNSLKPEDTAVYYCAADPTSPETSGQGYDYWGQGTQVTVSS”: the “polyreactivity (PSR sort gate)” value was “high polyreactivity”.

“QVQLVESGGGLVQAGGSLRLSCAASGIIFGRYDMGWYRQAPGKERELVAAITWSGGTTYYADSVKGRFTISRDNAKNTVYLQMNSLKPADTAVYYCNAVGRYSEDGYWGQGTQVTVSS”: the “polyreactivity (PSR sort gate)” value is “high polyreactivity”.

As to “QVQLVESGGGLVQAGGSLRLSCAASGSTFPYNAMGWYIQAPGKERELVAAISSRGGRTYYADSVKGRFSISRDNAKYTVYLQMNSLKPEDTAVYYCAARVVSRKDMNYWGQGTQVTVSS”, the “polyreactivity (PSR sort gate)” value is recorded as “high polyreactivity”. For the sequence “QVQLVESGGGLVQAGGSLRLICAASGSTFVFYAMGWYRQAPGKERELYATISTGGSTYADSVKGRFTISRDNSKNTVYLQMNSLIPEDTAVYYCNARLRSFTLSDAEYEYWGQGTQETVSS”, the “polyreactivity (PSR sort gate)” value was “low polyreactivity”. For the sequence “QVQLVESGGGLVLAGGSLRLSCAASGSTFVYYAMGWYRQAPGKERELVAAISRSGGSTYYADSVKGRFTISRDNAKNTVYLQMNSLKPEDTAVYYCAAKVRFTRRYDYWGQGTQVTVSS”, the “polyreactivity (PSR sort gate)” value was “high polyreactivity”.

“QVQLVESGGGLVQAGGSLRLSCAASGRIFSYYAMGWYRQAPGKERELVAAITRRDGRTYYADSVKGRFTISRDNAKNTVYLQMNSLKPEDTAVYYCAAYLAASYDWGQGTQVTVSS”: the “polyreactivity (PSR sort gate)” value is “low polyreactivity”. Regarding “QVQLVESGGGLVQAGGSLRLSCAASGSIFDYYTMGWYRQAPGKERELVASITQSGGSTYYADSVKGRFTISRDNAKNTVYLQMNSLKPEDTAVYYCAADFSIVKMDYWGQGTQVTVSS”, the “polyreactivity (PSR sort gate)” value is “low polyreactivity”. To “QVQLVESGGGLVQAGGSHRLSCAASGFTFDFYAMGWYRQAPGKERELVAAISKNDGTTYYADSVKGRFTISRDNAKNTVYLLLNRLKPEDSAVYYCAAESGYPVYTYVSSGDYWGQGTQVTGSS” belongs “low polyreactivity”; to “QVQLVESGGGLVQAGGSLRLSCAASGSIFYWYAMGWYRQARGKERELVAGITYSGGNTYYADSVKGRFTISRDNAKNTVYLQMNSLKPEDTAVYYCAATRGYWRKWRMDYWGQGTQVTVSS”, “high polyreactivity”; to “QVQLVESGGGLVQAGGSLRLSCAASGRTFKDYAKGWYRHAPGKERELVARINGSGGSTYYADSVKGRFTISRDTAKNSVYLQMNSLKPEDTAVYYCGKDARRRTSILSGGRHYDYWGQGTQVTVSS”, “low polyreactivity”.

“QVQLVESGGGLVQAGGSLRLSCAASGSIFLVYAMGWYRQAPGKERELVAAISRSGRTYADSVKGRFTISRDNAKNTVYLQMNSLKPEDTAVYYCAAGTKRRFEGDYWGQGTQVTVSS”: the “polyreactivity (PSR sort gate)” value is “high polyreactivity”.

Take “QVQLVESGGGLVQAGGSLRLSCAASGSIFYSNTMGWYSQAPGKERELVAAISSSSGRTYYADSVKGRFTISRDNAKNTVYLQMNSLKPEDTAVYYCARRYGWGQGTQVTVSS”: the “polyreactivity (PSR sort gate)” value is “high polyreactivity”.

On to “QVQLVESGGGLVQAGGSLRLSCAASGIIFASNAMGWYIQAPGKERELVATINWTDSTTYYADSVKGRFTISRDNAKNNVYLLMNSLKPEDTAGYYCNAVPHWFYRYGRYDYWGQGTQVTVSS”, for which the “polyreactivity (PSR sort gate)” value is “low polyreactivity”. Regarding “QVQLVESGGGLVQAGGSLRLSCAASGSTFRYYAMGWYRQAPGKERELVAAISRSGGRTYYADSVKGRYTISRDYAKKTVYLQMNSLKPEDTAVYYCAVDIVSIRGYTYGYWGQGTQVTVSS”, the “polyreactivity (PSR sort gate)” value is “high polyreactivity”.
